In PMC10510648 one finds Kd data, which are given here for one substance.

The term Kd denotes a measure of binding affinity in units of concentration. The low end stands for a tighter complex, the high end for a looser complex.

The test system of series [1] is RirA wild type (Rhizobium leguminosarum strain 8401). As to the kind of experiment: SPR. Conditions: SPR: 10 mM Hepes, 150 mM NaCl, 0.05% Tween, pH 7.4, 20 °C, 0-125 nM dimer; EMSA: 10 mM Hepes, 50 mM NaCl, 2.5% sucrose, 2.5 mM MgCl2, 1 mM DTT, pH 7.9, on ice …. (A gel shift assay detects complexes by their altered migration in electrophoresis.)
The test system of series [2] is RirA N8D (Rhizobium leguminosarum strain 8401?). Put plainly: SPR. Particulars: SPR: 10 mM Hepes, 150 mM NaCl, 0.05% Tween, pH 7.4, 20 °C, 0-125 nM dimer; EMSA: 10 mM Hepes, 50 mM NaCl, 2.5% sucrose, 2.5 mM MgCl2, 1 mM DTT, pH 7.9, on ice ….

With fhuA IRO box 30 bp SPR oligo, the Kd in series [1] stood at 12.8 nM; in series [2], 10.3 nM.
